The target of experiment [1] is T1, human FKBP-12 fused through a flexible Gly/Ser linker to a C-terminal luciferase fragment (human, UniProt P62942 2-108). Briefly: cell-based or functional assay.
In experiment [2] the target is T1, human FKBP-12 fused through a flexible …. The experiment is described as follows: split luciferase complementation in live HEK293T cells, rapamycin titrated for 8 h; all productive click beetle green or red fragment pairs (apparent Kd on the rapamycin concentration).
Protocol: The experiments were set up in a 96 well plate format. Each well was transfected with 75 ng DNA, 225 nL Fugene6, and 10,000 cells in DMEM and heat-inactivated FBS. The cells were allowed to incubate for 48 hours. […] After 8 hours, images were taken using the Xenogen IVIS 100 optical imager. The cells were imaged in MEBSS supplemented with 1% serum and 150 μg/mL of D-luciferin. The plates were incubated at 37° C. for 10 minutes and then imaged. One minute images were taken at all available filters with a FOV C and binning of 4. Experimental DNA was prepared in molar equivalent ratios to ensure equal parts intact protein and recombined heteroprotein fragments of the various split luciferases.
Experiment [3] shares this target. Briefly: split luciferase complementation in HEK293T cells, fold induction by rapamycin (FIG. 7).

The source of these data is US20080233589A1 (WASHINGTON UNIVERSITY IN ST LOUIS, published 2008).

T1 sequence (P62942 2-108): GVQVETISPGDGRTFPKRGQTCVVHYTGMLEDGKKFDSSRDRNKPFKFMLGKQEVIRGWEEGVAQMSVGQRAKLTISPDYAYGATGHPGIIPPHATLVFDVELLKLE

B1: FRB domain of human mTOR (residues 2024-2113) fused through a flexible Gly/Ser linker to an N-terminal luciferase fragment (other)
chain: HEMWHEGLEEASRLYFGERNVKGMFEVLEPLHAMMERGPQTLKETSFNQAYGRDLMEAQEWCRKYMKSGNVKDLTQAWDLYYHVFRRISK
notes: range 2024-2113; Stands for the set of FRB-NLuc fusions (GN, RN, FN) expressed in HEK293T cells; also called FRP; FRB-NLuc; not shown: flexible Gly/Ser linker with multiple cloning site; N-terminal luciferase fragment; differs between the pairs pooled in the result (click beetle green or red residues 2-413)
As to B1, the “Ki for FK506 inhibition of rapamycin-induced FRB and FKBP binding (luciferase complementation, 10 nM rapamycin)” value in experiment [1] amounted to 1.57 nM. In experiment [2], the Kd came to 0.25 nM.

B2: FRB mutant S2035I fused to an N-terminal luciferase fragment (other)
chain: HEMWHEGLEEAIRLYFGERNVKGMFEVLEPLHAMMERGPQTLKETSFNQAYGRDLMEAQEWCRKYMKSGNVKDLTQAWDLYYHVFRRISK
notes: range 2024-2113; also called ΔF; mutant S20351 FRB; not shown: flexible Gly/Ser linker with multiple cloning site; N-terminal luciferase fragment of the 'native split luciferase pairs'
Turning to B2, the binding result in experiment [3] is on record as “no binding”.
